According to paper PMC2646663 (Biochemistry, 2008):

B1: PurQ (glutaminase subunit of FGAR amidotransferase) from Thermotoga maritima (enzyme)
chain: MKPRACVVVYPGSNCDRDAYHALEINGFEPSYVGLDDKLDDYELIILPGGFSYGDYLRPGAVAAREKIAFEIAKAAERGKLIMGICNGFQILIEMGLLKGALLQNSSGKFICKWVDLIVENNDTPFTNAFEKGEKIRIPIAHGFGRYVKIDDVNVVLRYVKDVNGSDERIAGVLNESGNVFGLMPHPERAVEELIGGEDGKKVFQSILNYLKR
modifications: glutamyl thioester intermediate covalently linked to Cys86 (seen in the crystal structure)
B2: PurS from Thermotoga maritima (natural protein)
chain: MPLFKFAIDVQYRSNVRDPRGETIERVLREEKGLPVKKLRLGKSIHLEVEAENKEKAYEIVKKACEELLVNPVVEEYEVREL

Legend:
[1] = target: T1, Formylglycinamide ribonucleotide amidotransferase (small PurL) from Thermotoga maritima (Thermotoga maritima, UniProt Q9X0X3 1-603); assay: crystal structure
T1 sequence: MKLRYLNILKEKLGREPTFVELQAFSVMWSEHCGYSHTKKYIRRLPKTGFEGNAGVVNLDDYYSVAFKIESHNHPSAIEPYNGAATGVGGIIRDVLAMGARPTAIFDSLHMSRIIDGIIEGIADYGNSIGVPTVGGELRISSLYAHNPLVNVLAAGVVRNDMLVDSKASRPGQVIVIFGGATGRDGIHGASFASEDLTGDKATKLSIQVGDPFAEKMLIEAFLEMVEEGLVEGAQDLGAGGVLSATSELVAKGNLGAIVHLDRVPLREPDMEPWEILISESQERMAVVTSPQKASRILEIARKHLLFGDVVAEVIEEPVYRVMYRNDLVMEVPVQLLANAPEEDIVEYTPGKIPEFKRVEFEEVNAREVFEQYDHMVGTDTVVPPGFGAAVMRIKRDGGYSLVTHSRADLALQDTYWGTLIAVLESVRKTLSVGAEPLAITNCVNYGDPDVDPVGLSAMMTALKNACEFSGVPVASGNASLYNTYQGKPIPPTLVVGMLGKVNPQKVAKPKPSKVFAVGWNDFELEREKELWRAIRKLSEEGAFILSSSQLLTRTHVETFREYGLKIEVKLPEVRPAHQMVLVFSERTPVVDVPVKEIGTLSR

[2] = target: the molecule itself; assay: crystal structure

| Binder | stoichiometry N [1] | stoichiometry N [2] |
| --- | --- | --- |
| B1 | 1 TmPurQ per TmPurL |  |
| B2 | 2 TmPurS per TmPurL | 2 |
